The text below walks through data of IntAct's records for PubMed 31515488.

For test [1], the target named is echp_human EHHADH (UniProt Q08426).
Test [2] concerns the target pp16a_human PPP1R16A (UniProt Q96I34).
In test [3] the target is dpolb_human POLB (UniProt P06746).
In test [4] the target is frih_human FTH1 (UniProt P02794).
Test [5] deals with scel_human SCEL (UniProt O95171).
For test [6], the target named is tpp2_human TPP2 (UniProt P29144).
Test [7] deals with zksc4_human ZKSCAN4 (UniProt Q969J2).
Test [8] addresses cryaa_human CRYAA (UniProt P02489).
For test [9], the target named is phs_human PCBD1 (UniProt P61457).
Test [10] has as its target T1, acy3_human ACY3 (UniProt Q96HD9).
T1 sequence: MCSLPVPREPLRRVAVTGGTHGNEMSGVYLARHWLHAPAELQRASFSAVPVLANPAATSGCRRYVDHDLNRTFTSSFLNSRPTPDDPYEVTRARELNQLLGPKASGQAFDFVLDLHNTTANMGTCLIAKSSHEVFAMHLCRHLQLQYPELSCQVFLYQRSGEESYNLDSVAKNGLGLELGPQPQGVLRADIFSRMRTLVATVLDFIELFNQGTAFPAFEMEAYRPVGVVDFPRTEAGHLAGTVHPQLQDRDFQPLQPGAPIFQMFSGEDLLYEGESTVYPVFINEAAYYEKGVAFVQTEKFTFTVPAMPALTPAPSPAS

For test [11], the target named is ei2ba_human EIF2B1 (UniProt Q14232).
Test [12] concerns the target T2, dmc1_human DMC1 (UniProt Q14565).
T2 sequence: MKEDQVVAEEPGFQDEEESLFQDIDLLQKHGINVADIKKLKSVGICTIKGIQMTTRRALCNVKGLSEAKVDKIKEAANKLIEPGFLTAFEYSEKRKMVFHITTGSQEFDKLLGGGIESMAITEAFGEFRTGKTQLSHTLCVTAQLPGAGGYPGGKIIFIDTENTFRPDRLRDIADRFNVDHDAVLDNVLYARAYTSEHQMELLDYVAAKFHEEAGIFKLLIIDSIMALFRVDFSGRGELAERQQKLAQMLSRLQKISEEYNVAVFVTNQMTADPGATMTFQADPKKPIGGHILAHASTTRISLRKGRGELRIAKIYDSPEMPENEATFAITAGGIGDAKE

Test [13] addresses zmat1_human ZMAT1 (UniProt Q5H9K5).
Test [14] deals with dpyl2_human DPYSL2 (UniProt Q16555).
Test [15] concerns the target cep63_human CEP63 (UniProt Q96MT8).
The target of test [16] is rasf7_human RASSF7 (UniProt Q02833).
Test [17] deals with pak1_human PAK1 (UniProt Q13153).
Test [18] has as its target trip6_human TRIP6 (UniProt Q15654).
Test [19] addresses lpxn_human LPXN (UniProt O60711).
In test [20] the target is zc4h2_human ZC4H2 (UniProt Q9NQZ6).
Test [21] addresses mdfi_human MDFI (UniProt Q99750).
Test [22] has as its target kr107_human KRTAP10-7 (UniProt P60409).
Test [23] deals with FAM90A1 (UniProt Q86YD7).
FAM90A1, sequence (Q86YD7 whole entry): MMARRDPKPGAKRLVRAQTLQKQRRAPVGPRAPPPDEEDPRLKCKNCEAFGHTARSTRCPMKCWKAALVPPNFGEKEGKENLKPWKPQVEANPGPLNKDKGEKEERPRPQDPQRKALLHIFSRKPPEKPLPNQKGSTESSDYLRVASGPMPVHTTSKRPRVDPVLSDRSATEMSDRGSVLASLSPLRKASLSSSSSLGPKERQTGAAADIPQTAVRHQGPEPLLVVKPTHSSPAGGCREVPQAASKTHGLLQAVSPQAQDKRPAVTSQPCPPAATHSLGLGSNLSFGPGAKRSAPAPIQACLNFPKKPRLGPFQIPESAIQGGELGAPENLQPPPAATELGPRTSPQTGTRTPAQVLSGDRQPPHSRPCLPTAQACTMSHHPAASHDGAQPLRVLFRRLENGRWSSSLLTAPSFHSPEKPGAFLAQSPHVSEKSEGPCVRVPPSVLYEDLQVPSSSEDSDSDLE
Test [24] addresses sf3a3_human SF3A3 (UniProt Q12874).
Test [25] has as its target vatl_human ATP6V0C (UniProt P27449).
Test [26] has as its target sc22a_human SEC22A (UniProt Q96IW7).
For test [27], the target named is ppla_human PLN (UniProt P26678).
ppla_human PLN, sequence (P26678 whole entry): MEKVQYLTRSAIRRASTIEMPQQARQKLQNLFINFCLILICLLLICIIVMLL
Test [28] concerns the target mal_human MAL (UniProt P21145).
For test [29], the target named is emp3_human EMP3 (UniProt P54852).
emp3_human EMP3, sequence (P54852 whole entry): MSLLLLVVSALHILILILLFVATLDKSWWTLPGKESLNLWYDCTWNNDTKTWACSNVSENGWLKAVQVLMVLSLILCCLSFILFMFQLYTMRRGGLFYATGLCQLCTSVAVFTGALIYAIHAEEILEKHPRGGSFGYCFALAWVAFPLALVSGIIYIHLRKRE
The target in test [30] is tri23_human TRIM23 (UniProt P36406).
For test [31], the target named is ntaq1_human NTAQ1 (UniProt Q96HA8).
Test [32] has as its target erep1_human ENTREP1 (UniProt Q15884).
Test [33] has as its target pdli7_human PDLIM7 (UniProt Q9NR12).
The target in test [34] is hnrl1_human HNRNPUL1 (UniProt Q9BUJ2).
In test [35] the target is fxl18_human FBXL18 (UniProt Q96ME1).
Test [36] concerns the target adas_human AGPS (UniProt O00116).
The target in test [37] is mfap1_human MFAP1 (UniProt P55081).
Test [38] has as its target gpt2l_human GPATCH2L (UniProt Q9NWQ4).
The target in test [39] is nkap1_human NKAPD1 (UniProt Q6ZUT1).
Test [40] concerns the target aen_human AEN (UniProt Q8WTP8).
Test [41] deals with rby1a_human RBMY1A1 (UniProt P0DJD3).
The target in test [42] is sufu_human SUFU (UniProt Q9UMX1).
For test [43], the target named is ndor1_human NDOR1 (UniProt Q9UHB4).
In test [44] the target is glrx3_human GLRX3 (UniProt O76003).
In test [45] the target is stk25_human STK25 (UniProt O00506).
Test [46] addresses stk24_human STK24 (UniProt Q9Y6E0).

Zinc finger protein 223 (Homo sapiens), Q9UK11 S357A, sequence (Q9UK11 whole entry S357A): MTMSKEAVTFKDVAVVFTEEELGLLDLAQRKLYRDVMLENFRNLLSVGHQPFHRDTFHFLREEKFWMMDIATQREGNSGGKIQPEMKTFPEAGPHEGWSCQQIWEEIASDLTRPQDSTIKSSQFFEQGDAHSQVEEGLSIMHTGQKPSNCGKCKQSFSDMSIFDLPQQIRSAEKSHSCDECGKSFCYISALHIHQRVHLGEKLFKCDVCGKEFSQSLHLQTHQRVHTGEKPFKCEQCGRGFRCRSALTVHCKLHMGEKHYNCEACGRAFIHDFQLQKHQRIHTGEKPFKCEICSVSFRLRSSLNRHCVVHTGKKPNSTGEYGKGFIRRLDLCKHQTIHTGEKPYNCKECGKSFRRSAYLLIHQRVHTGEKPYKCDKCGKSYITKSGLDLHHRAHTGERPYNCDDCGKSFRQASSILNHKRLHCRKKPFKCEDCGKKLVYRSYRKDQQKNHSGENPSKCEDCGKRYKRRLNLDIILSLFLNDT
Zinc finger protein 317 (Homo sapiens), Q96PQ6 Q19H, sequence (Q96PQ6 whole entry Q19H): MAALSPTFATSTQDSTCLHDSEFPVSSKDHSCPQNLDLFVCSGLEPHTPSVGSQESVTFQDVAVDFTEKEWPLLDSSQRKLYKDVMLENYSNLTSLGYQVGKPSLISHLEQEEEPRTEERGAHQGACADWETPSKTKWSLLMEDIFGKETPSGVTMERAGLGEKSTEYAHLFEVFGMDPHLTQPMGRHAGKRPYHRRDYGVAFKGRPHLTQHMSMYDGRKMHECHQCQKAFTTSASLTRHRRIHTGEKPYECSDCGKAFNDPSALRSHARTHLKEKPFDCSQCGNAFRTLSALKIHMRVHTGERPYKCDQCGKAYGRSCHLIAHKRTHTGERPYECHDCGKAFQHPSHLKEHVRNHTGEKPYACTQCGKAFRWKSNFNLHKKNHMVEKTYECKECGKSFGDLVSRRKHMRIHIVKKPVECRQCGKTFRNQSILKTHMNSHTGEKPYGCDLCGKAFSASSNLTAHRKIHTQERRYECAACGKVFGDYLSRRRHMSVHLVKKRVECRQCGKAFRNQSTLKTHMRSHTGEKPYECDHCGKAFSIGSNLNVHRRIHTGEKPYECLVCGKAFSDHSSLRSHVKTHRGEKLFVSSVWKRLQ
Ectodysplasin-A (Homo sapiens), Q92838 R153H, sequence (Q92838 whole entry R153H): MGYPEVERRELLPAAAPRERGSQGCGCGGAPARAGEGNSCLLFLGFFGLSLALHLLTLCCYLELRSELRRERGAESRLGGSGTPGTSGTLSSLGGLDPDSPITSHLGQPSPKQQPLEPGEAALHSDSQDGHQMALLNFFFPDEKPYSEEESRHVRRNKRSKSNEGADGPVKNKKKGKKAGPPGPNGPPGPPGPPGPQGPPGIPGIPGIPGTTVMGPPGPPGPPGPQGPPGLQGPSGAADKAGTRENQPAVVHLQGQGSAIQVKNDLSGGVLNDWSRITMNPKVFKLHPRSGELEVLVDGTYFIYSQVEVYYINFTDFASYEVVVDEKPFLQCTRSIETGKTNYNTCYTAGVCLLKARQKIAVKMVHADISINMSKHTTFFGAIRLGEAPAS
Ectodysplasin-A (Homo sapiens), Q92838 A367T, sequence (Q92838 whole entry A367T): as the sequence (Q92838 whole entry R153H) above, with H153R, A367T counted along it
Cytoplasmic protein NCK2 (Homo sapiens), O43639 E125K, sequence (O43639 whole entry E125K): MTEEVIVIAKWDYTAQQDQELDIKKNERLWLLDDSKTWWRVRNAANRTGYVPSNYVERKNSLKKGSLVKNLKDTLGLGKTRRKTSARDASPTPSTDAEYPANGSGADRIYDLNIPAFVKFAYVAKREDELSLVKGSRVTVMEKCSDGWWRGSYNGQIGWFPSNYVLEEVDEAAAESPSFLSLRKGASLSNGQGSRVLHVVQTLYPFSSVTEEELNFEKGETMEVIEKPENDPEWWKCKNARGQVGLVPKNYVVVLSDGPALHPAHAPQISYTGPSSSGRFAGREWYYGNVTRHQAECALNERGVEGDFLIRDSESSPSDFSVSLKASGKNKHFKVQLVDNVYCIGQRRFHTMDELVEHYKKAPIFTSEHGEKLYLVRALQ
sf3a3_human SF3A3, sequence (Q12874 whole entry): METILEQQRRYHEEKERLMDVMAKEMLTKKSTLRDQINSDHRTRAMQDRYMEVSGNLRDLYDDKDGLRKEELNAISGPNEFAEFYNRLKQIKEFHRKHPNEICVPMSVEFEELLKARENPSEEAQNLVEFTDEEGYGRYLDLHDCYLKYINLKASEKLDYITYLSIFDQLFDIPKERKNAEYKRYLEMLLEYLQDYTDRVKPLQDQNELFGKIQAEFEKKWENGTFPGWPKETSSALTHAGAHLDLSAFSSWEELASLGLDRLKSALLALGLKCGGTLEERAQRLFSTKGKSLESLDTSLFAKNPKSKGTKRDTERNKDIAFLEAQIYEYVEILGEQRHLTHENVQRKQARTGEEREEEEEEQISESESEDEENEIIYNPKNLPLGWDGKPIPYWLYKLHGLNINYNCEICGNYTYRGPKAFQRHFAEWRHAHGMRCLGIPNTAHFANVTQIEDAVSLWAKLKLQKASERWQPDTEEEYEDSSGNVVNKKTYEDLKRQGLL
echp_human EHHADH, sequence (Q08426 whole entry): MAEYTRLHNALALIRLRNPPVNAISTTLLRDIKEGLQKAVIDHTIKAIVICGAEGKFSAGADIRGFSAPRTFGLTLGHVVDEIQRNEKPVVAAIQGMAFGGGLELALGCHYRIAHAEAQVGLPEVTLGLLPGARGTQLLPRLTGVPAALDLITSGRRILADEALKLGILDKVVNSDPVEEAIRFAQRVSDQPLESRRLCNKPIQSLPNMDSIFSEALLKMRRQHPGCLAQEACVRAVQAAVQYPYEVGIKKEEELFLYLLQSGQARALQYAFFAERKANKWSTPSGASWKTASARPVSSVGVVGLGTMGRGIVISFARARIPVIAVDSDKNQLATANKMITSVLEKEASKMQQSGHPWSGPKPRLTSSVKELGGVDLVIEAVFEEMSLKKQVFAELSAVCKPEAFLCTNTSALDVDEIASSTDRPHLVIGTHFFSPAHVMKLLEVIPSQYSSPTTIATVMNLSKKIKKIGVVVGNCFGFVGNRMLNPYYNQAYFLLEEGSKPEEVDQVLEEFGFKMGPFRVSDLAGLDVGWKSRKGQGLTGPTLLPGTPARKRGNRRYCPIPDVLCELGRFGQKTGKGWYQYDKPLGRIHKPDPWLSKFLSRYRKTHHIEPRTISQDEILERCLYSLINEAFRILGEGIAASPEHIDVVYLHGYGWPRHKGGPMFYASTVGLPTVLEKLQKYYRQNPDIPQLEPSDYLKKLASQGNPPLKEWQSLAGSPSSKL
pp16a_human PPP1R16A, sequence (Q96I34 whole entry): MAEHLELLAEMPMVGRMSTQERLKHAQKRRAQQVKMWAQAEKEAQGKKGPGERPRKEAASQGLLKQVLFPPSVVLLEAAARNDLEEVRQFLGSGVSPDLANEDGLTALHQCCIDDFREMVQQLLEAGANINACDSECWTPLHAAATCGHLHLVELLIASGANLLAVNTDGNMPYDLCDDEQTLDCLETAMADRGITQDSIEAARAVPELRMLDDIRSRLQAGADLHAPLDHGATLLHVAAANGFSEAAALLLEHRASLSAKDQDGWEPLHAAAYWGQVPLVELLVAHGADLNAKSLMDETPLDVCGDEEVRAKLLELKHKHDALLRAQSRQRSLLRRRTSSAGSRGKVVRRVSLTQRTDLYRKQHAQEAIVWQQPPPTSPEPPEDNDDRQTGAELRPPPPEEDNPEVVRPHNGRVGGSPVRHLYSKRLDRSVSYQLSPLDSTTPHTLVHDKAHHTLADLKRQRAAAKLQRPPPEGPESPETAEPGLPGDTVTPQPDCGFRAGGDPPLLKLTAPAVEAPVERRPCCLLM
vatl_human ATP6V0C, sequence (P27449 whole entry): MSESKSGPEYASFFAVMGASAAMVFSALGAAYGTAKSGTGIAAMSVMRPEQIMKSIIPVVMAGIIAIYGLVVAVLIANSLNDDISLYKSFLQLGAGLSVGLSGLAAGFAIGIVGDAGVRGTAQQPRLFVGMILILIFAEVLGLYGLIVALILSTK
pdli7_human PDLIM7, sequence (Q9NR12 whole entry): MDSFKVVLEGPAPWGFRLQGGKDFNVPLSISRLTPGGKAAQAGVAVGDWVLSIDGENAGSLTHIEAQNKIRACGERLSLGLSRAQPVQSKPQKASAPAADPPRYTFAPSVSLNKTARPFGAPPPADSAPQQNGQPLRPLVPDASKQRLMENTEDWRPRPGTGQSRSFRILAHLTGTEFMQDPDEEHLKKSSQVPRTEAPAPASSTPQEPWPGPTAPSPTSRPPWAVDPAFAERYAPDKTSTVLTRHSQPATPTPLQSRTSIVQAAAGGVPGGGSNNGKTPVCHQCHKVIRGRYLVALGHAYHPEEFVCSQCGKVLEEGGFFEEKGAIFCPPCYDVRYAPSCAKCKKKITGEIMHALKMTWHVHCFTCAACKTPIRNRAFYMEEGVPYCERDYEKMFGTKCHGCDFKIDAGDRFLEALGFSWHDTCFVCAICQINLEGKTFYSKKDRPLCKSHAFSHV

Consider “Tripeptidyl-peptidase 2 (Homo sapiens), P29144 V1121I”, for which the “effect of a mutation on the interaction” value in [1], in [2] and in test [3] was “with no effect” each time.
As to “RNA-binding protein FXR2 (Homo sapiens), P51116 R483Q”, the “effect of a mutation on the interaction” value in test [4] and in test [5] was “with no effect” throughout.
Turning to “DNA polymerase beta (Homo sapiens) (from UniProt P06746) P242R”, in test [6], the “effect of a mutation on the interaction” value is listed as “with no effect”.
For “Calcium-binding protein 5 (Homo sapiens), Q9NP86 E140K”, in [7], the “effect of a mutation on the interaction” value was “with no effect”.
For “Golgi reassembly-stacking protein 2 (Homo sapiens) (from UniProt Q9H8Y8) T415M”, the “effect of a mutation on the interaction” value in test [8], in test [9], in [10], in test [11], in test [12] and in test [13] was “with no effect” in each case. Further, the “effect of a mutation on the interaction” value in [14] is listed as “with no effect”.
For “Histone-lysine N-methyltransferase EZH2 (Homo sapiens), Q15910 M439T”, the “effect of a mutation on the interaction” value in test [15] is on record as “disrupting interaction strength”.
On to “Cytoplasmic protein NCK2 (Homo sapiens), O43639 E125K”, for which the “effect of a mutation on the interaction” value in test [16], in [17] and in test [18] was “with no effect” throughout.
On to “Homeobox protein Hox-C9 (Homo sapiens), P31274 A122V”, for which the “effect of a mutation on the interaction” value in [19] is listed as “with no effect”.
As for “Zinc finger protein 223 (Homo sapiens), Q9UK11 S357A”, the “effect of a mutation on the interaction” value in test [20], in test [21] and in test [22] was “with no effect” each time.
In the case of “Zinc finger protein 212 (Homo sapiens), Q9UDV6 H293Y”, the “effect of a mutation on the interaction” value in test [23] and in test [24] was “with no effect” in each case.
For the substance “Tripeptidyl-peptidase 2 (Homo sapiens), P29144 T998R”, the “effect of a mutation on the interaction” value in test [1], in [2] and in [3] was “with no effect” throughout.
Take “Ectodysplasin-A (Homo sapiens), Q92838 A367T”: the “effect of a mutation on the interaction” value in test [25], in test [26], in [27], in [28] and in test [29] was “with no effect” each time.
In the case of “FAD synthase (Homo sapiens), Q8NFF5 R437H”, the “effect of a mutation on the interaction” value in test [30] is listed as “with no effect”.
On to “Argininosuccinate lyase (Homo sapiens), P04424 R12Q”, for which the “effect of a mutation on the interaction” value in test [31] is listed as “with no effect”.
Consider “NEDD4-like E3 ubiquitin-protein ligase WWP2 (Homo sapiens), O00308 R215W”, for which the “effect of a mutation on the interaction” value in test [32], in test [33], in test [34] and in test [35] was “with no effect” in each case.
With “Golgi reassembly-stacking protein 1 (Homo sapiens), Q9BQQ3 T425M”, the “effect of a mutation on the interaction” value in test [36] is reported as “with no effect”.
“Zinc finger protein 398 (Homo sapiens), Q8TD17 V252M”: the “effect of a mutation on the interaction” value in [37] and in [38] was “with no effect” throughout.
For “Zinc finger protein 317 (Homo sapiens), Q96PQ6 Q19H”, the “effect of a mutation on the interaction” value in [39], in test [40] and in test [41] was “with no effect” each time.
Consider “Zinc finger protein 747 (Homo sapiens), Q9BV97 G28R”, for which, in test [42], the “effect of a mutation on the interaction” value is given as “with no effect”.
For “Zinc finger protein 212 (Homo sapiens), Q9UDV6 E225K”, the “effect of a mutation on the interaction” value in test [23] and in test [24] was “with no effect” in each case.
Turning to “Ectodysplasin-A (Homo sapiens), Q92838 R153H”, the “effect of a mutation on the interaction” value in test [25], in [26], in test [27], in [28] and in [29] was “with no effect” each time.
For Anamorsin (Homo sapiens), Q6FI81 A34E, the figures for the “effect of a mutation on the interaction” value in [43] and in [44] were “disrupting interaction strength” and “with no effect”, respectively.
For “Programmed cell death protein 10 (Homo sapiens), Q9BUL8 M92V”, the “effect of a mutation on the interaction” value in test [45] is “with no effect”.
Take “NEDD4-like E3 ubiquitin-protein ligase WWP2 (Homo sapiens), O00308 H401R”: the “effect of a mutation on the interaction” value in test [32], in test [33], in test [34] and in [35] was “with no effect” each time.
On to “Programmed cell death protein 10 (Homo sapiens), Q9BUL8 M20V”, for which the “effect of a mutation on the interaction” value in test [46] is given as “with no effect”.
